From patent publication US20240270821A1, “GIP/GLP1/GCG TRI-RECEPTOR AGONISTS AND USES THEREOF” (priority 2023, published 2024)
Starred links: 1 amine or outer side, 2 acyl side, 3 side chain; linkers in the order of their positions; H or OH if unused. Non-standard residues stand in square brackets, D forms with d. Groups on a side chain read outwards from the residue. No end group written: not given here. *: point of attachment. C18 diacid = O=C(O)CCCCCCCCCCCCCCCCC(=O)*; γGlu = O=C(O)[C@H](CCC(=O)[*:2])N[*:1]; αMe4Pal = C[C@](N)(Cc1ccncc1)C(=O)O; 4Pal = N[C@@H](Cc1ccncc1)C(=O)O; αMeL = CC(C)C[C@](C)(N)C(=O)O; Orn = NCCC[C@H](N)C(=O)O; Dab = NCC[C@H](N)C(=O)O; Aib = CC(C)(N)C(=O)O

T1: human GIP receptor (human) (UniProt P48546)
T1 sequence (looked up): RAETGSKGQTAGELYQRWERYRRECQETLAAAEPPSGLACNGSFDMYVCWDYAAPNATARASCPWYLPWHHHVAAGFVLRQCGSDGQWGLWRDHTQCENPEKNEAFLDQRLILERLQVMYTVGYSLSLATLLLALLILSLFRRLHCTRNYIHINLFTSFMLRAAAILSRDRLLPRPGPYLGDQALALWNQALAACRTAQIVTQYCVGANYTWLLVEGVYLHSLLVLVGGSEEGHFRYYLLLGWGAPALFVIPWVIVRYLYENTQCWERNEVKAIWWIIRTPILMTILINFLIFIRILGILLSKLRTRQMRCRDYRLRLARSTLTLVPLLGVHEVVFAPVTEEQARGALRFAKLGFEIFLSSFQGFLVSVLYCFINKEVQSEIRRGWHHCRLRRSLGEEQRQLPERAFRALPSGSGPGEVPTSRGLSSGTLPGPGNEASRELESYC

B1: Example 1060 (peptide)
chain: YXQGTFTSDXSXXLDKKAQXAFIEYLIAGGPSSGAPPPSGSEE
modifications: Aib, 4Pal, Orn, αMeL, Me4Pal; acylated Lys; C-terminal amide; synthetic construct; SITE 2: note = 2-Aminoisobutyric Acid; SITE 10: note = 3-(4-Pyridyl)-L-alanine; SITE 12: note = L-ornithine; SITE 13: note = alpha-methyl-leucine; SITE 17: note = Lysine is chemically modified through conjugation of the epsilon-amino group of the Lysine side chain with (Glu)-(ga)
B2: Example 1055 (peptide)
chain: Y[Aib]QGTFTSD[4Pal]S[Dab][αMeL]LD[Orn]K([γGlu-γGlu-C18 diacid])AQ[αMe4Pal]AFIE[αMe4Pal]LLAGGPSSGAPPPEGSEE-NH2
B3: Example 1050 (peptide)
chain: YXQGTFTSDFSXXLDXKAQXAFIEXLLEGGPSSGAPPPGGSEE
modifications: non-natural residues; Lys acylated C18 diacid via γGlu2; C-term amide; synthetic construct; SITE 2: note = 2-Aminoisobutyric Acid; SITE 12: note = L-ornithine; SITE 13: note = alpha-methyl-leucine; SITE 16: note = L-ornithine; SITE 17: note = Lysine is chemically modified through conjugation of the epsilon-amino group of the Lysine side chain with (gamma-Glu)2-CO-(CH2)
B4: Example 1058 (peptide)
chain: YXQGTFTSDXSQXLDXKAQXAFIEXLLEGGPSSGAPPPSGSEE
modifications: non-natural residues; lysine acylated γGlu-C18 diacid; C-terminal amide; synthetic construct; SITE 2: note = 2-Aminoisobutyric Acid; SITE 10: note = 3-(4-Pyridyl)-L-alanine; SITE 13: note = alpha-methyl-leucine; SITE 16: note = L-ornithine; SITE 17: note = Lysine is chemically modified through conjugation of the epsilon-amino group of the Lysine side chain with D-Glutami
B5: Example 1063 (peptide)
chain: YXQGTFTSDXSXXLDXKAQXAFIEYLIAGGPSSGAPPPSGSEE
modifications: Lys acylated γGlu-C18 diacid; non-natural residues; C-amide; synthetic construct; SITE 2: note = 2-Aminoisobutyric Acid; SITE 10: note = 3-(4-Pyridyl)-L-alanine; SITE 12: note = L-ornithine; SITE 13: note = alpha-methyl-leucine; SITE 16: note = L-ornithine; SITE 17: note = Lysine is chemically modified through conjugation of the epsilon-amino group of the Lys
B6: Example 1074 (peptide)
chain: YXQGTFTSDXSQXLDXKAQXAFIEXLIAGGPSSGAPPPSGSEE
modifications: non-natural residues; C18 diacid-γ-Glu acyl on Lys; C-terminal amide; synthetic construct; SITE 2: note = 2-Aminoisobutyric Acid; SITE 10: note = 3-(4-Pyridyl)-L-alanine; SITE 13: note = alpha-methyl-leucine; SITE 16: note = L-ornithine; SITE 17: note = Lysine is chemically modified through conjugation of the epsilon-amino group of the Lysine side chain with D-Glutami
B7: Example 1065 (peptide)
chain: YXQGTFTSDXSXXLDXKAQXAFIEXLLEGGPSSGAPPPSGSEE
modifications: Aib, 4Pal, Orn, αMeL, αMeY; lipidated Lys; C-terminal amide; synthetic construct; SITE 2: note = 2-Aminoisobutyric Acid; SITE 10: note = 3-(4-Pyridyl)-L-alanine; SITE 12: note = L-ornithine; SITE 13: note = alpha-methyl-leucine; SITE 16: note = L-ornithine; SITE 17: note = Lysine is chemically modified through conjugation of the epsilon-amino group of the Lys
B8: Example 1066 (peptide)
chain: YXQGTFTSDXSXXLDXKAQXAFIEXLLEGGPSSGAPPPSGSEE
modifications: non-natural residues, Glu-γGlu-C18 diacid acylation, C-terminal amide; synthetic construct; SITE 2: note = 2-Aminoisobutyric Acid; SITE 10: note = 3-(4-Pyridyl)-L-alanine; SITE 12: note = L-ornithine; SITE 13: note = alpha-methyl-leucine; SITE 16: note = L-ornithine; SITE 17: note = Lysine is chemically modified through conjugation of the epsilon-amino group of the Lys
B9: Example 1072 (peptide)
chain: YXQGTFTSDXSQXLDXKAQXAFIQXLIEGGPSSGAPPPSGSEE
modifications: Aib, 4Pal, αMeL, Orn, Me4Pal, αMeY; acylated Lys; C-terminal amide; synthetic construct; SITE 2: note = 2-Aminoisobutyric Acid; SITE 10: note = 3-(4-Pyridyl)-L-alanine; SITE 13: note = alpha-methyl-leucine; SITE 16: note = L-ornithine; SITE 17: note = Lysine is chemically modified through conjugation of the epsilon-amino group of the Lysine side chain with D-Glutami
B10: Example 1051 (peptide)
chain: YXQGTFTSDFSXXLDKKAQXAFIEYLLAGGPSSGAPPPEGSEE
modifications: Aib, Orn, αMeL; acylated Lys; C-terminal amide; synthetic construct; SITE 2: note = 2-Aminoisobutyric Acid; SITE 12: note = L-ornithine; SITE 13: note = alpha-methyl-leucine; SITE 17: note = Lysine is chemically modified through conjugation of the epsilon-amino group of the Lysine side chain with (gamma-Glu)2-CO-(CH2)16-CO2H; SITE 20: note = 2-Am
B11: Example 1069 (peptide)
chain: YXQGTFTSDXSXXLDXKAQXAFIEYLLAGGPSSGAPPPSGSEE
modifications: non-natural residues; acylated Lys; C-terminal amide; synthetic construct; SITE 2: note = 2-Aminoisobutyric Acid; SITE 10: note = 3-(4-Pyridyl)-L-alanine; SITE 12: note = L-ornithine; SITE 13: note = alpha-methyl-leucine; SITE 16: note = L-ornithine; SITE 17: note = Lysine is chemically modified through conjugation of the epsilon-amino group of the Lys
B12: Example 1057 (peptide)
chain: YXQGTFTSDXSQXLDXKAQXAFIEYLLAGGPSSGAPPPSGSEE
modifications: non-natural residues, lipidated Lys, C-terminal amide; synthetic construct; SITE 2: note = 2-Aminoisobutyric Acid; SITE 10: note = 3-(4-Pyridyl)-L-alanine; SITE 13: note = alpha-methyl-leucine; SITE 16: note = L-ornithine; SITE 17: note = Lysine is chemically modified through conjugation of the epsilon-amino group of the Lysine side chain with (Glu)-(ga)
B13: Example 1061 (peptide)
chain: YXQGTFTSDXSXXLDXKAQXAFIEYLIAGGPSSGAPPPSGSEE
modifications: non-natural residues, C-terminal amide, acylated Lys with fatty diacid; synthetic construct; SITE 2: note = 2-Aminoisobutyric Acid; SITE 10: note = 3-(4-Pyridyl)-L-alanine; SITE 12: note = …; SITE 13: note = alpha-methyl-leucine; SITE 16: note = L-ornithine; SITE 17: note = Lysine is chemically modified through conjugation of the epsilon-amino group of the Lys
B14: Example 1068 (peptide)
chain: YXQGTFTSDXSXXLDXKAQXAFIEYLLAGGPSSGAPPPSGSEE
modifications: C-terminal amide; lysine acylated with (γ-Glu)2-C18 diacid; synthetic construct; SITE 2: note = 2-Aminoisobutyric Acid; SITE 10: note = 3-(4-Pyridyl)-L-alanine; SITE 12: note = L-ornithine; SITE 13: note = alpha-methyl-leucine; SITE 16: note = L-ornithine; SITE 17: note = Lysine is chemically modified through conjugation of the epsilon-amino group of the Lys

Legend:
Test in all cases: cell-based or functional assay
[1] = molecular target: human glucagon receptor (human) (UniProt P47871)
hGLP-1R = hGLP-1R (Homo sapiens, UniProt P43220)
[2] = molecular target: T1, human GIP receptor (human)

human glucagon receptor (human), sequence (P47871 26-477): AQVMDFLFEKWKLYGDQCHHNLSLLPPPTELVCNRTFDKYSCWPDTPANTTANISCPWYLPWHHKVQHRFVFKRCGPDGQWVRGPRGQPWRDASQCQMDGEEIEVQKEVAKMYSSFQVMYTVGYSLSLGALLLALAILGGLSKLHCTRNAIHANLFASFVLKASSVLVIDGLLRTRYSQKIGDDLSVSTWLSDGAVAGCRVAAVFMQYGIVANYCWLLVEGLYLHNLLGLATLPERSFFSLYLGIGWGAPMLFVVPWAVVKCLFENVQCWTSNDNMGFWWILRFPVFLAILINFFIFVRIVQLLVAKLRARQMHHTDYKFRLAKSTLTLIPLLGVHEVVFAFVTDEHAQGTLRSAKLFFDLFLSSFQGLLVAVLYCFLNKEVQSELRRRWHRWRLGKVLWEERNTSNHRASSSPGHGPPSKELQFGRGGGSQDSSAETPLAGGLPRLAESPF
hGLP-1R, sequence (P43220 24-463): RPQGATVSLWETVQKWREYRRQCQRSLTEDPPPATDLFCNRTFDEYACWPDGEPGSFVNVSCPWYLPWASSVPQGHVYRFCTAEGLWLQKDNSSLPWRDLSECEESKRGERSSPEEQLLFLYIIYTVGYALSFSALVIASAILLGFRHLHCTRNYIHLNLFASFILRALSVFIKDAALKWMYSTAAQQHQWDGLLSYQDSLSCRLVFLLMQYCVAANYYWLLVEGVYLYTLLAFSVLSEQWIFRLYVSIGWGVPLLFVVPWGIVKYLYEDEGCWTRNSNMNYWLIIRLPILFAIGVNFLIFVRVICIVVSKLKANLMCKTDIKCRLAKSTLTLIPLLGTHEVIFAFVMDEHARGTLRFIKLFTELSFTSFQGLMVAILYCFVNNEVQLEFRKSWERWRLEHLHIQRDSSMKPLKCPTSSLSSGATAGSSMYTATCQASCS

Binder | Relative cAMP EC50 [1] [nM] | cAMP Rel EC50 (1% HSA) [1] [nM] | Relative cAMP EC50 (hGLP-1R) [nM] | Relative cAMP EC50 [2] [nM] | cAMP Rel EC50 (1% HSA) [2] [nM] | cAMP Rel EC50 (1% HSA) (hGLP-1R) [nM]
B1 | 9.08 | 4900 | 2.85 | 0.223 | 44.7 | –
B2 | 1.88 | 450 | 14.6 | 0.366 | 78.9 | –
B3 | 6.8 | 2040 | 7.65 | 0.152 | 68.5 | 1240
B4 | 5.8 | 1450 | 4.48 | 0.139 | 45.6 | –
B5 | 10.6 | 2290 | 6.96 | 0.318 | 26.6 | 626
B6 | 22.8 | 1990 | 0.794 | 0.0745 | 8.49 | 101
B7 | 19.7 | 3080 | 11.6 | 0.293 | 39.1 | 2290
B8 | 25.4 | 4260 | 9.8 | 0.446 | 69.9 | 1850
B9 | 10.5 | 914 | 0.889 | 0.157 | 9.94 | 95.1
B10 | 10.3 | 1800 | 8.3 | 0.172 | 32.6 | –
B11 | 21.2 | 2160 | 8.87 | 0.417 | 39.5 | 1290
B12 | 5.29 | 2780 | 5.16 | 0.128 | 25.9 | –
B13 | 17.3 | 2910 | 4.56 | 0.656 | 55.6 | –
B14 | 4.8 | 295 | 11.6 | 0.211 | 20.2 | 1330
